Assay results as given in patent publication US20260258115A1.

B1: ADI-41265 (antibody, V domains shown)
VH: EVQLVQSGAEVKKPGESLTISCKDSGYSFTSYWIGWVRQVPGKGLEWMGIVYPGDSRYSPSFQGHVTMSADKSINTAYLQWSTLKASDTAMYYCAKVVTYGSAIRWFESWGQGTLVTVSS
VL: QSVLTQPPSVSAAPGQKVSISCSGSSSNIGNNFVSWYQQVPGTAPKLLIIDNNKRPSGIPDRFSGSKSGTSATLGITGLQTGDEADYYCGTWDSRLSAEVFGGGTKLTVL
B2: ADI-41267 (antibody, V domains shown)
VH: QVQLVQSGPGLVKPSGTLSLTCAVSGGSISTTHWWSWVRQPPGKGLEWIGEIYHSGSTNYNPSLKSRVTISVDKSRSQFSLKLTSVTAADTAVYYCARGDPLCSGGICYSGYFDYWGQGTLVTVSS
VL: SYVLTQPPSVSVSPGQTATITCSGDKLGDQYACWYQQKSGQSPVLVIYRDNKRPSGIPERFSGSNSGNTATLTISETQAMDEADYYCQAWGSSSVVFGGGTKVTVL
B3: ADI-41270 (antibody, V domains shown)
VH: EVQLVESGGGVVQPGQSLRLSCAASGFTFSSFAMHWVRQAPGKGLEWVAVISYDGSNKYYADSVKGRFTISRDNSKNTLSLQVNSLRAEDTAVYYCARVSAEGSMGRFSDFNYWGLGTLVTVSS
VL: QSALTQPASVSGSPGQSITISCTGTSSDVGSYNLVSWYQQHPGKAPKLMIYEVRKRPSGVSNRFSGSKSGNTASLTISGLQAEDEADYYCCSYAGSDTYVFGTGTKLTVL
B4: ADI-41273 (antibody, V domains shown)
VH: EVQLLESGGDLVRPGGSLRLSCTASGFSFSSSEMNWVRQAPGKGLEWVASINSGGDDIYYADSVKGRFTISRDNAKNSLSLQMDSLRAEDTALYYCARSRSGYSSGWSRFFGNWGQGTLVTVSS
VL: QSALTQPRSVSGSPGQSVTISCTGTISDIGAYNYVSWYQQHPGKAPKVMIYDVSKRPSGVPDRFSGSKSGFTASLTISGLQAEDEADYYCCSYAGRWVFGGGTKLTVL
B5: ADI-41275 (antibody, V domains shown)
VH: EVQLVESGGGLVKPGGSLRLSCAASGFMFSTYSMNWVRQAPGKGLEWVSFITGSSSDKYYAHSVKGRFTISRDNAKRTLYLQLNSLRAEDTAVYYCARFRGLYCDGDCSSRGNTYYNYYGMDVWGQGTTVTVSS
VL: EIVMTQSPLSLSVIPGEPASISCRSSKSLLHSNGYTYLDWYLQKPGQSPQLLIHLGSNRASGVPDRFSGSGSGTDFTLKISRVEAEDVGVFYCMQALQAPPTFGPGTKVEIK
B6: ADI-41277 (antibody, V domains shown)
VH: QVQLQESGPGLVKPSGTLSLTCAVSGGSITGRNWWSWVRQPPGKELERIGEIYHGGSTEYNPSLKGRVTISVDKSKNQFSLRLNSVTAADTAVYYCARVAHYDSNGYYIGYFDLWGRGTLVTVSS
VL: EIVLTQSPPSLSASVGDRVTITCRASQSISIYLNWYQQKPGKAPKLLIFAASSLQSGVPLRFSGSGSGTDFTLTISSLQPEDFATYYCHQSYSAPWTFGQGTKVDIK
B7: ADI-41278 (antibody, V domains shown)
VH: EVQLVESGPALVKPTQTLTLTCTFSGFSLSTKRMGVSWIRQPPGKALEWLARIDWDDDKFYSTSLKTRLTISKDTSKNQVVLTLANMDPVDTATYFCARTTVYASGGYYLYYLDYWGQGTLVTVSS
VL: DIVMTQTPSSLSASVGDRVTLTCRASQRIASYVNWYHQKPGKAPNLLIYAASNLQSGVPSRFSGSGSGTDFTLTISSLQPEDFATYYCQQSYSTPLTFGQGTKLEIK
B8: ADI-41279 (antibody, V domains shown)
VH: QVQLVQSGAEVKKAGETLKISCRGPAHTFTSFWIGWVRQTPGKGLEWMGNIYPGDTDTTYSPSFRGQVTISADKSISTAYLQWNSLKASDTAIYYCATRVRHGYSSSGSFESWGQGTMVTVSS
VL: QSVVTQPPSVSGAPGQRITISCTGSNSNTGAGYDVHWYQQLPGAAPKLLIFANNNRPSGVPDRFSGSKSGTSASLAITGLQAEDEADYYCQSYDNSLSAYVFGTGTKLTVL
B9: ADI-41280 (antibody, V domains shown)
VH: QVQLVESGPGLVKPSETLALTCTVSGGSLSTYYWSWIRQPPGKGLEWIGYIYYSGTTYYNPSLKSRVTISEDRSKNQFSLKLTSVTAADTAVYYCARHGPKTEFWSAQYYLELWGRGTLVTVSS
VL: EIVLTQSPGTLSLSPGERATLSCRASQSVSSDYLAWYQQKPGQAPSLLIYGVSTRATGIPDRISGSGSGTDFTLTISRLEPEDFAVYYCHQYGTSPWTFGQGTKVEIK
B10: ADI-41281 (antibody, V domains shown)
VH: QVQLVQSGAEVKKPGASVKVSCKASGYSFTNHGIHWVRQAPGQRLEWMGWINVANGFTAYSQNLQGRVTFTRDTSASTAYLELTSLRSEDTAVYHCARDESYCSAGYCYLYFDYWGQGTTVTVSS
VL: DIQVTQSPSSLSASVGDRVTITCRASQNIITYVNWYQQKPGKAPELLIFGASSVQSGVPSRFSGSGSGTDFTLTISSLRPDDFATYYCQQSYSNPRTFGGGTKVEIK
B11: ADI-41282 (antibody, V domains shown)
VH: QVQLVQSGGGVVQPGRSLRLSCAASGFMFTIYSMHWVRQAPGKGLEWVAVISNDGVNKYYSDSVKGRFTISRDNSKNTLYLQMNNLRAEDTAVYYCASDIVVLVTATDYWGQGTLVTVSS
VL: ETTLTQSPVTLSLSPGERATLSCRTSQSFSSPLLAWYQQKPGQAPRLLIYGASNRATGIPDRFSGSGSGTDFTLTISRLEPVDFAVYYCQQYGSSPYTFGQGTKLEIK
B12: ADI-41283 (antibody, V domains shown)
VH: QVTLKESGPTLVKPTQTLTLTCTFSGFSLSTFGVAVGWIRQPPGKALEWLALIYWDDDKRYSPSLKSRLTITKDISKNQVVLTMTNMDPVDTATYYCAHRLRSLTARGVFDIWGQGTTVTVSS
VL: DIRLTQSPSSLSASVGDRVTITCRASQSINNFLNWYQQRPGKAPTLLIYSASSLQSGVPSRFSGSGSGTDFTLTISSLQPEDFATYFCQQTDSFPWTFGQGTKVEIK
B13: ADI-41284 (antibody, V domains shown)
VH: QVQLVQSGGGLVKPGGSLRLSCAASGFTFSNAWMSWVRQAPGKGLEWVGRIKSEVDGGTADYAANVKGRLTISRDDSKNMMYLQMNSLKTEDTAVYYCTTDPGVGWIFGEVKLFRTDPEYWGQGTLVTVSS
VL: QSVLTQPPSVSAAPGQKVTISCSGSSSNIGNHYVSWYQQLPGTSPKLLIYDNNKRPSGIPDRFSGSKSGTSATLGITGLQPGDEADYYCGTWDSSLSAVRVFGGGTKVTVL
B14: ADI-41285 (antibody, V domains shown)
VH: QVQLVQSGAEVKKPGSSVKVSCKASGGTFSYYAISWVRQAPGQGLEWMGGIIPILGTVKNAQKFQGRVTITADKITSIAYMELSSLRHEDTAVYYCARDYYDSSGYYYNGYGMDVWGQGTTVTVSS
VL: QSVLIQPPSASGTPGQRVTISCSGSSSNIGSNYVYWYQQLPGTAPKLLIYRNDQRPSGVPDRFSGSKSGTSASLAISGLRSGDEADYYCAAWDDSLGGPIWVFGGGTKLTVL
B15: ADI-41286 (antibody, V domains shown)
VH: QVQLVQSGAEVKKPGASVKVSCKASGYTFISYGISWVRQAPGQGPEWMGWISTHNGNTNYAQKLQGRVTMTTDTSTSTAYMELRSLRSDDTAVYYCARDERSIAVEVYLGSTFDIWGQGTMVTVSS
VL: DIQVTQSPSSVSASVGDRVTITCRASQGISSWLAWYQQKPGKAPKLLIYAASTLQSGVPSRFSGSGSGTDFTLTISRLQPEDFATYYCQQANIFGVTFGPGTKVDIK
B16: ADI-41287 (antibody, V domains shown)
VH: EVQLVESGGGLVQPGRSLRLSCAASGFTFDDYAMHWVRQAPGKGLEWVSSISWHSADIGYAASVEGRFTISRDNAKNSLFLQMNSLRPEDTALYYCAKEIVSTSWYSGYFQDWGQGTLVTVSS
VL: QPVLTQPRSVSGSPGQSVTISCTGTSSDVGDYNYVSWYQQHPGKAPKLMIYDVSKRPSGVPDRFSGSKSGNTASLTISGLQGEDEADYYCCSYAGRHTFVFGTATKVTVL
B17: ADI-41291 (antibody, V domains shown)
VH: QVQLQQWGAGLLKPSETLSLTCVVYGESFSDSGYYWTWIRQPPEKGLEWIGEINHGGSTSYNPSLKSRVTISVDTSENQFSLKVTSVTGADTAVYYCARLRLGCSGGSCYSRFDYWGQGTLVTVSS
VL: DIQLTQSPSSLSASVGDRVTITCRASQSINSYLNWYQQKPGKAPVLLIHAASSLQGGVPSRFSGSGSGTDFTLTISSLQPEDFATYYCQQSYNTRWTFGHGTKVDIK
B18: ADI-41292 (antibody, V domains shown)
VH: EVQLLESGGGVVQPGRSLRLSCAASGFSFSSYGIHWVRQAPGKGLECVALMSYDGSEKYYADSVKGRFTISRDNSKNTLYLHMNSLRREDTAVYYCAKGSHLRWSHLDYYFHLWGRGTLVTVSS
VL: DIVMTQSPSTLSASVGDRVTITCRASQSLSTWLAWYQQKPGKAPKLLISDASNLESGVPSRFSGRGSGTEFTLTISGLQPDDFATYYCQQERTFGQGTKVDIK
B19: ADI-41293 (antibody, V domains shown)
VH: QVQLQQSGPGLAKPSQTLSLTCTVSGGPISGVDYYWSWIRQPPGKGLEWIGYIYYSGSTYYNPSLKSRVTISVDTSKKQFSLKMSSVTAADTAVYYCARDVGATPYYYYGMDVWGQGTTVTVSS
VL: DIVLTQSPDTLSLSPGERATLSCRASQSVRSNYLAWYQHKPGQAPRLLIYGASSRVAGIPDRFSGSGSGTDFTLTISRLEPEDFAVYYCQQYGSSPPSVTFGGGTKVEIK
B20: ADI-41297 (antibody, V domains shown)
VH: QVQLVQSGAEVKKPGSSVKVSCKASGGTFSTDAISWVRQAPGQGLEWMGGIIPLFGTANYAQKFQGRVTITADESTSTAYMELNSLRSVDTAVYYCGRTGAFDGEVVVRPHLDLWGQGTLVTVSS
VL: QPVLTQPASVSGSPGQSITISCTGTSSDVGGYDYVSWYQHHPGKAPKLMIYEVSNRPSGVSNRFSGSKSGNTASLTISGLQADDEAAYYCSSYTRSNTLLFGGGTKLTVL

The binders below were run against RSV prefusion F (preF, DS-Cav1) (Respiratory syncytial virus) (assay: BLI, IgG on sensor, 100 nM antigen).

B1 and B2 are within 1.5-fold of each other in Kd: 15 nM for the first, 10.7 nM for the second.

First: B3
Second: B4
The Kd of the first is 1.6-fold higher: 4.92 nM for the first, 3.06 nM for the second. The second binds more tightly here.

Compared with B5, B6 is 1.6-fold lower in Kd: 5.74 nM for the first, 3.6 nM for the second. The second binds more tightly here.

Going from B7 to B8, the Kd rises from 1.28 nM to 50.4 nM (39-fold).

Going from B9 to B10, the Kd rises from 3.62 nM to 6.7 nM (1.9-fold). The first binds more tightly here.

Going from B11 to B12, the Kd rises from 3.25 nM to 27.4 nM (8.4-fold). The first binds more tightly here.

Compared with B13, B14 is 6-fold lower in Kd: 3.06 nM for the first, 0.511 nM for the second.

Compared with B15, B16 is 2.4-fold lower in Kd: 7.6 nM for the first, 3.22 nM for the second. The second binds more tightly here.

Compared with B17, B18 is 300-fold higher in Kd: 2.98 nM for the first, 883 nM for the second.

First: B19
Second: B20
The Kd of the first is 7.9-fold lower: 0.496 nM for the first, 3.91 nM for the second. The first binds more tightly here.

What follows are binders tested against RSV postfusion F (postF, F deltaFP) (Respiratory syncytial virus) (assay: BLI, IgG on sensor, 100 nM antigen).

Going from B1 to B2, the Kd rises from 3.08 nM to 10.9 nM (3.5-fold). The first binds more tightly here.

First: B3
Second: B4
The Kd of the first is 1.9-fold lower: 0.617 nM for the first, 1.17 nM for the second.

Going from B5 to B6, the Kd falls from 1.33 nM to 0.78 nM (1.7-fold). The second binds more tightly here.

Compared with B7, B8 is 99-fold higher in Kd: 0.482 nM for the first, 47.8 nM for the second. The first binds more tightly here.

Compared with B9, B10 is 3.3-fold higher in Kd: 0.483 nM for the first, 1.58 nM for the second.

Compared with B11, B12 is 6.4-fold higher in Kd: 1.25 nM for the first, 7.95 nM for the second.

B13 and B14 are within 1.5-fold of each other in Kd: 0.547 nM for the first, 0.412 nM for the second.

Compared with B15, B16 is 9.2-fold lower in Kd: 5.49 nM for the first, 0.598 nM for the second.

First: B17
Second: B18
The Kd of the first is 160-fold lower: 1.2 nM for the first, 195 nM for the second.

Compared with B19, B20 is 1.5-fold higher in Kd: 0.411 nM for the first, 0.628 nM for the second.
